Data reported in publication doi:10.1101/2021.04.26.441214 (bioRxiv, 2021).

What was measured:
Experiment in all cases: cryo-EM structure
[1] = biological target: T. maritima encapsulin shell protein (wild type) (T. maritima) (UniProt Q9WZP2)
cryo-EM structure = biological target: the molecule itself
[2] = biological target: T. maritima encapsulin shell protein (wild type) (T. maritima) (UniProt Q9WZP2); remark: listed apart in the source

Chain of T. maritima encapsulin shell protein (wild type) (Q9WZP2 whole entry): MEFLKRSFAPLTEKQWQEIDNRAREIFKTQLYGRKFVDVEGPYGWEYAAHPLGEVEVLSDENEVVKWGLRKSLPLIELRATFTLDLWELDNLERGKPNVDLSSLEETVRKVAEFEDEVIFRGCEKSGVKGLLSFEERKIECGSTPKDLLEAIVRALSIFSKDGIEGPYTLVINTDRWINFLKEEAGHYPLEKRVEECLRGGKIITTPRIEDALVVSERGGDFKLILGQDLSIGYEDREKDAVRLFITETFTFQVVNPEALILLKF
Chain of T. maritima encapsulin shell protein (wild type) (T. maritima) (Q9WZP2 whole entry): as above

Row | stoichiometry N (subunits per shell) [1] | FLPs per shell (2D class averages) (FLPs per shell) [2] | Molecule | stoichiometry N (cryo-EM structure)
1 | 60 | – | T. maritima encapsulin shell protein (wild type) (from UniProt Q9WZP2 1-265) (natural protein) | –
2 | – | 2 | T. maritima ferritin-like protein (FLP) cargo (natural protein, UniProt Q9WZP3 1-114, looked up) MADQYHEPVSELTGKDRDFVRALNSLKEEIEAVAWYHQRVVTTKDETVRKILEHNRDEEMEHAAMLLEWLRRNMPGWDEALRTYLFTDKPITEIEEETSGGSENTGGDLGIRKL | 10 subunits
